Where two headings read alike, the source gives them in different places.
Columns and labels:
[1] = biological target: MHC class II (HLA-DR1) on human LG-2 cells (human); assay: Scatchard analysis, 125I-labelled toxin on LG-2 cells
[2] = biological target: MHC class II (HLA-DR1) on human LG-2 cells (human)
[3] = biological target: MHC class II (HLA-DR1) on human LG-2 cells (human); assay: Scatchard analysis, 125I-labelled toxin on LG-2 cells; low affinity site
[4] = biological target: MHC class II (HLA-DR1) on human LG-2 cells (human); assay: Scatchard analysis, 125I-labelled toxin on LG-2 cells; high affinity site

Row | Binder | Kd [1] | Kd [2] | Kd [3] | Kd [4]
1 | recombinant SEB (other) ESQPDPKPDELHKSSKFTGLMENMKVLYDDNHVSAINVKSIDQFLYFDLIYSIKDTKLGNYDNVRVEFKNKDLADKYKDKYVDVFGANYYYQCYFSKKTNDINSHQTDKRKTCMYGGVTEHNGNQLDKYRSITVRVFEDGKNLLSFDVQTNKKKVTAQELDYLTRHYLVKNKKLYEFNNSPYETGYIKFIENENSFWYDMMPAPGDKFDQSKYLMMYNDNKMVDSKDVKIEVYLTTKKK | 340 nM | – | – | –
2 | recombinant TSST (other) STNDNIKDLLDWYSSGSDTFTNSEVLDNSLGSMRIKNTDGSISLIIFPSPYYSPAFTKGEKVDLNTKRTKKSQHTSEGTYIHFQISGVTNTEKLPTPIELPLKVKVHGKDSPLKYGPKFDKKQLAISTLDFEIRHQLTQIHGLYRSSDKTGGYWKITMNDGSTYQSDLSKKFEYNTEKPPINIDEIKTIEAEIN | 130 nM | – | – | –
3 | recombinant SPE-G superantigen (mature) (other) DENLKDLKRSLRFAYNITPCDYENVEIAFVTTNSIHINTKQKRSECILYVDSIVSLGITDQFIKGDKVDVFGLPYNFSPPYVDNIYGGIVKHSNQGNKSLQFVGILNQDGKETYLPSEAVRIKKKQFTLQEFDFKIRKFLMEKYNIYDSESRYTSGSLFLATKDSKHYEVDLFNKDDKLLSRDSFFKRYKDNKIFNSEEISHFDIYLKTH | – | 15 to 65 nM | 1000 nM | 16 nM
4 | recombinant SEA (other) SEKSEEINEKDLRKKSELQGTALGNLKQIYYYNEKAKTENKESHDQFLQHTILFKGFFTDHSWYNDLLVDFDSKDIVDKYKGKKVDLYGAYYGYQCAGGTPNKTACMYGGVTLHDNNRLTEEKKVPINLWLDGKQNTVPLETVKTNKKNVTVQELDLQARRYLQEKYNLYNSDVFDGKVQRGLIVFHTSTEPSVNYDLFGAQGQYSNTLLRIYRDNKTINSENMHIDIYLYTS | – | – | 1000 nM | 36 nM

Source: patent US20050153376A1 (AUCKLAND UNISERVICES, published 2005)
